Data set [1] addresses T1, HisFlag-Mlh1 (MutLγ subunit);Mlh3 (MutLγ subunit) (Saccharomyces cerevisiae (S288c, …, UniProt P38920;Q12083 1-769;1-715, |)).
T1 sequence 1: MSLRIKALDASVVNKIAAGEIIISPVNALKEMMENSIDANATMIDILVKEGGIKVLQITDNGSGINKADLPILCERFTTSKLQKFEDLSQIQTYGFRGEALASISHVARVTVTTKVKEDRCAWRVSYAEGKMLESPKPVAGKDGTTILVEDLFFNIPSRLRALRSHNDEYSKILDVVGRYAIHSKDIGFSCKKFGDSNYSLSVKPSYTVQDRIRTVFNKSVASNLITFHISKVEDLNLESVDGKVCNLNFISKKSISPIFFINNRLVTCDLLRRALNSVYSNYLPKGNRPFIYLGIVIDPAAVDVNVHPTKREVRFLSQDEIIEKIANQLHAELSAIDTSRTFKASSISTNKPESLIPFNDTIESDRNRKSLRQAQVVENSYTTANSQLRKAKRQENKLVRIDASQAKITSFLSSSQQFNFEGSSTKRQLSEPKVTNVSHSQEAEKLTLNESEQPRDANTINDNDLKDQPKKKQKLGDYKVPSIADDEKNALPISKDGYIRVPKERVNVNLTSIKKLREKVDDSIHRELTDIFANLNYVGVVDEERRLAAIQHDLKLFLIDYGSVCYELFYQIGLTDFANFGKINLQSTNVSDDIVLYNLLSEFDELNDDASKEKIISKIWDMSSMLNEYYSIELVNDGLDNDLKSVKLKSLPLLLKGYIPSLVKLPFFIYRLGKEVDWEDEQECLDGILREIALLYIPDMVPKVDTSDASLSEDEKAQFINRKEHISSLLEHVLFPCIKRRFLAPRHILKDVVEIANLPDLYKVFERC
T1 sequence 2: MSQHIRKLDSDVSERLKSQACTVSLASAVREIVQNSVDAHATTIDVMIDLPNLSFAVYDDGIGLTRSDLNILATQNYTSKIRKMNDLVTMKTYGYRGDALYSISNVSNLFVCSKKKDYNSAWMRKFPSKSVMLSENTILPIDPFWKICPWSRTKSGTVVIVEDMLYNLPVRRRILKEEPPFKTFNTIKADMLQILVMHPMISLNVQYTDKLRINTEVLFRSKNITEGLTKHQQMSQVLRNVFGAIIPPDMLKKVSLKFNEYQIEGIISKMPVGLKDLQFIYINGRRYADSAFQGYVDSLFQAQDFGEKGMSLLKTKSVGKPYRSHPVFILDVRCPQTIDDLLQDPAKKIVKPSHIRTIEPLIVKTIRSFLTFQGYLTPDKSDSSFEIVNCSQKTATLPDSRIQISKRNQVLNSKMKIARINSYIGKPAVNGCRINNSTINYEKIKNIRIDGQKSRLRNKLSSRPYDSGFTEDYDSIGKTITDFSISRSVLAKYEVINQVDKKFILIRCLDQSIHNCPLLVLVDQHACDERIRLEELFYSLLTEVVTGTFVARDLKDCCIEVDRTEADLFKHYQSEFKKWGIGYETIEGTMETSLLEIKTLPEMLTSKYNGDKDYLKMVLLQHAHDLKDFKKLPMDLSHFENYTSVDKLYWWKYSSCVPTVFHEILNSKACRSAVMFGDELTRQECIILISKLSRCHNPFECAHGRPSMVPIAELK
Nature of the data set: FeBABE footprinting.

The target in data set [2] is T2, Mlh1 (untagged);HisFlag-Mlh3 (Saccharomyces cerevisiae (S288c, …, UniProt P38920;Q12083 1-769;1-715, |)).
T2 sequence 1: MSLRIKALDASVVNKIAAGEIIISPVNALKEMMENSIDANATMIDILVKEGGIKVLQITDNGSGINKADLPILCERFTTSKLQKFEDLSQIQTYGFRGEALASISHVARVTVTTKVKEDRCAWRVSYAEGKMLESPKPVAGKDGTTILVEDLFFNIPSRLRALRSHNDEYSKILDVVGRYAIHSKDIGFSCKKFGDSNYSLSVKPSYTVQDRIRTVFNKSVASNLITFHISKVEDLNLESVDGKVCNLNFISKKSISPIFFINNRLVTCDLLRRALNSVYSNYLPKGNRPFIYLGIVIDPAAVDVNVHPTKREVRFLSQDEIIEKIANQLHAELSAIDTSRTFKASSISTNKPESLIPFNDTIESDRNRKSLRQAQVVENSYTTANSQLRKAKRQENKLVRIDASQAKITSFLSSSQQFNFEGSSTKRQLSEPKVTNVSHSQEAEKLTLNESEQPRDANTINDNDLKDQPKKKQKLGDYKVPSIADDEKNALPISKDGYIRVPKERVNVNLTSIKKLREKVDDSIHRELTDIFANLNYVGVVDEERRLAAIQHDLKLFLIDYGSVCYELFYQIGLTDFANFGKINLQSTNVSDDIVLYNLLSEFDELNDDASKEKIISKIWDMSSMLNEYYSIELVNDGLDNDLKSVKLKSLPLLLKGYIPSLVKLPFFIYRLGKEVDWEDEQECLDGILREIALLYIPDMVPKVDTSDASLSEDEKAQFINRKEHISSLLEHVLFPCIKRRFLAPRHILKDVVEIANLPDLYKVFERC
T2 sequence 2: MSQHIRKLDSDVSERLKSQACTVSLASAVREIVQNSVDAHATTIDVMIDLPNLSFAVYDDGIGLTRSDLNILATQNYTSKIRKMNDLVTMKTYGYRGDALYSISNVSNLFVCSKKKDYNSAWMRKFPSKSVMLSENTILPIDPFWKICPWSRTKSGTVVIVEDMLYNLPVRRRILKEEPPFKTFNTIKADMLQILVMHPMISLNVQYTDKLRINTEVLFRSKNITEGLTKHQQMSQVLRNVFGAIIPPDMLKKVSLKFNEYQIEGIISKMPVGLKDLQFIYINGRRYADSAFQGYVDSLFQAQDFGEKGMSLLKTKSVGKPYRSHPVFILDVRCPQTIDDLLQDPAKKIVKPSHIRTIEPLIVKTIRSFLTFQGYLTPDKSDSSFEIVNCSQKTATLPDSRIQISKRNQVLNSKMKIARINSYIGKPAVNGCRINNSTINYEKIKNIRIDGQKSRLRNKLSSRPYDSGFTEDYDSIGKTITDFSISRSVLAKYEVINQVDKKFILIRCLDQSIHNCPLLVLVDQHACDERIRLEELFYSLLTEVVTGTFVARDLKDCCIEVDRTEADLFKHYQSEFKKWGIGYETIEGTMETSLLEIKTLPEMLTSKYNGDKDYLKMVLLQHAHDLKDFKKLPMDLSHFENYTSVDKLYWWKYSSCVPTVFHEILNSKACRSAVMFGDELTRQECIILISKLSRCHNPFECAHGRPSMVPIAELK
Nature of the data set: FeBABE footprinting.

In data set [3] the target is T1, HisFlag-Mlh1 (MutLγ subunit);Mlh3 …. Nature of the data set: pull-down.
Data set [4] has the same target. Nature of the data set: FeBABE footprinting. This is another data set of the same source.
The target in data set [5] is T2, Mlh1 (untagged);HisFlag-Mlh3. Nature of the data set: FeBABE footprinting. The source holds these as a separate data set.

From doi:10.1101/108647 come the findings set out here.

Read-outs that look alike come from different tables or passages of the source.

B1: HJ+1 FeBABE (cb256/351/369/098) (structured_DNA)
DNA 1: CTAGTATAGAGCCGGCGCGCCATGTCTAGATAGCGTTAGGTCTGCCGAATAGTACTACTCGGATCCCGAGCGAACCACGC
DNA 2: GCGTGGTTCGCTCGGGATCCGAGTAGTACTATTCGGCAGAGGATTCGAATAGGCCTAATCGAATTCCGCCATCGATGCAC
DNA 3: GTGCATCGATGGCGGAATTCGATTAGGCCTATTCGAATCCAGACGCGAGTAGATCTTCACGGTACCCGCGGTTACCCGTG
DNA 4: CACGGGTAACCGCGGGTACCGTGAAGATCTACTCGCGTCTCCTAACGCTATCTAGACATGGCGCGCCGGCTCTATACTAG
modifications: phosphorothioate-FeBABE on strands 2 and 3, segment 1 (nearest the center); 3'-biotin on strand 1
On to B1, for which the binding result in data set [1] and in data set [2] was “binds” each time.

B2: dsDNA80-biotin (cb256/cb100) (dsDNA)
DNA 1: CTAGTATAGAGCCGGCGCGCCATGTCTAGATAGCGTTAGGTCTGCCGAATAGTACTACTCGGATCCCGAGCGAACCACGC
DNA 2: GCGTGGTTCGCTCGGGATCCGAGTAGTACTATTCGGCAGACCTAACGCTATCTAGACATGGCGCGCCGGCTCTATACTAG
modifications: 3'-biotin on strand 1
B2: the binding result in data set [3] is reported as “no binding”.

B3: HJ80-biotin (cb256/096/097/098) (structured_DNA)
DNA 1: CTAGTATAGAGCCGGCGCGCCATGTCTAGATAGCGTTAGGTCTGCCGAATAGTACTACTCGGATCCCGAGCGAACCACGC
DNA 2: GCGTGGTTCGCTCGGGATCCGAGTAGTACTATTCGGCAGAGGATTCGAATAGGCCTAATCGAATTCCGCCATCGATGCAC
DNA 3: GTGCATCGATGGCGGAATTCGATTAGGCCTATTCGAATCCAGACGCGAGTAGATCTTCACGGTACCCGCGGTTACCCGTG
DNA 4: CACGGGTAACCGCGGGTACCGTGAAGATCTACTCGCGTCTCCTAACGCTATCTAGACATGGCGCGCCGGCTCTATACTAG
modifications: 3'-biotin on strand 1
On to B3, for which, in data set [3], the binding result is “binds”.

B4: ssDNA+ FeBABE (cb361) (ssDNA)
DNA: TTTTTTTTTTTTTTTTTTTTTTTTTTTTTTTTTTTTTTTTTTTTTTTTTTTTTTTTTTTTTTTTTTTTTTTTTTTTTTTT
modifications: phosphorothioate-FeBABE after every 8 nt; 3'-biotin
B4: the binding result in data set [4] and in data set [5] was “binds” in each case.

B5: ssDNA80-biotin (cb316) (ssDNA)
DNA: TTTTTTTTTTTTTTTTTTTTTTTTTTTTTTTTTTTTTTTTTTTTTTTTTTTTTTTTTTTTTTTTTTTTTTTTTTTTTTTT
modifications: 3'-biotin
Turning to B5, in data set [3], the binding result was “binds”.
